# According to patent US20240158457A1 (MEDIKINE, published 2024):
# Several values for one entry are separate records, joined by “and”; a condition that tells them apart may be missing. Equal values may be shown once. Read-outs that look alike come from different tables or passages of the source. Where no end group is shown, it is not given here.
# B1: biotinylated alpha synthetic F1a Consensus Construct (peptide)
# peptide: GGELCWRPFSFVDCEEGG-biotin
# modifications: cysteine pairing not given here
# notes: also called bn-alpha synthetic F1a Consensus Construct; alpha synthetic F1 peptide, C-terminal biotinylated form
# B2: Dimer 3 (designed binder)
# chain: GGLCWYFGGTVRGPCLPAPAPAPAPAPAPAPAFFECFYSPGHEWCIPSGG
# modifications: not fully specified; cysteine pairing not given here; also: linker of formula V (drawing, may hold non-peptide parts) between beta and alpha moieties
# B3: biotinylated 7C06 (peptide)
# peptide: GGFFECFYSPGHEWCIPSGG-biotin
# modifications: cysteine pairing not given here
# notes: also called bn7C06
# B4: biotinylated 4D07 (peptide)
# peptide: GGICWVPFHYLDELMCTGG-biotin
# modifications: cysteine pairing not given here
# notes: also called bn4D07
# B5: C-terminally biotinylated form of peptide 5C09 (peptide)
# peptide: GGCPNWLSDHLSEIWCGG-biotin
# modifications: cysteine pairing not given here
# B6: IL-18 Binding Protein (IL-18BP) Fc fusion (Fc fusion, not shown: a dimerising Fc or GST)
# chain: TPVSQTTTAATASVRSTKDPCPSQPPVFPAAKQCPALEVTWPEVEVPLNGTLSLSCVACSRFPNFSILYWLGNGSFIEHLPGRLWEGSTSRERGSTGTQLCKALVLEQLTPALHSTNFSCVLVDPEQVVQRHVVLAQLWAGLRATLPPTQEALPSSHSSPQQQG
# B7: Dimer 2 (designed binder)
# chain: GGCPNWLSDHLSEIWCPAPAPAPAPAPAPAPAFFECFYSPGHEWCIPSGG
# modifications: not fully specified; cysteine pairing not given here; also: linker of formula V (drawing, may hold non-peptide parts) between beta and alpha moieties
# B8: biotinylated beta family 2 synthetic construct (peptide)
# peptide: GGLCWYFGGTVRGPCLGG-biotin
# modifications: cysteine pairing not given here
# notes: also called bn-beta family 2 synthetic construct
# B9: Dimer 1 (designed binder)
# chain: GGCPNWLSDHLSEIWCPAPAPAPAPAPAPAPAICWVPFHYLDELMCTGG
# modifications: not fully specified; cysteine pairing not given here; also: linker of formula V (drawing, may hold non-peptide parts) between beta and alpha moieties
# What was measured:
# [1] = molecular target: B6; experiment: direct binding ELISA; biotinylated peptide on NeutrAvidin, IL-18BP Fc titrated, anti-human IgG Fc-HRP
# Experimental: Binding of synthetic monomer peptides to IL-18 Binding Protein (IL-18BP) was measured using a direct binding ELISA. Briefly, 96-well ELISA plates were coated with NeutrAvidin (NA) at 5 μg per well in PBS, washed, then blocked with PBS containing 1% BSA. Wells were washed and representative peptides, synthesized with a C-terminal biotin were diluted to 300 nM in assay buffer and added to the NA coated wells. Wells were washed and serial dilutions starting at 100 nM of IL-18R subunits, IL-18BP from either of two sources (Acro #ILP-H5253 and R&D #119-BP), and control IgG Fc fusions) were added to the wells and incubated for 1 hr at 4° C. Then plates were washed and goat anti-human IgG Fc-HRP (Southern Biotech #2048-05) detection antibody was added for 1 hr. Wells were developed with TMB for 5-15 min and the enzyme reaction was stopped with a H₂SO₄ solution.
# [2] = molecular target: T1, human IL-18 receptor (alpha and beta subunits) on HEK-BLUE IL-18 reporter cells (human, UniProt Q13478 19-541; O95256 20-599); experiment: cell-based or functional assay
# T1 sequence (looked up) 1: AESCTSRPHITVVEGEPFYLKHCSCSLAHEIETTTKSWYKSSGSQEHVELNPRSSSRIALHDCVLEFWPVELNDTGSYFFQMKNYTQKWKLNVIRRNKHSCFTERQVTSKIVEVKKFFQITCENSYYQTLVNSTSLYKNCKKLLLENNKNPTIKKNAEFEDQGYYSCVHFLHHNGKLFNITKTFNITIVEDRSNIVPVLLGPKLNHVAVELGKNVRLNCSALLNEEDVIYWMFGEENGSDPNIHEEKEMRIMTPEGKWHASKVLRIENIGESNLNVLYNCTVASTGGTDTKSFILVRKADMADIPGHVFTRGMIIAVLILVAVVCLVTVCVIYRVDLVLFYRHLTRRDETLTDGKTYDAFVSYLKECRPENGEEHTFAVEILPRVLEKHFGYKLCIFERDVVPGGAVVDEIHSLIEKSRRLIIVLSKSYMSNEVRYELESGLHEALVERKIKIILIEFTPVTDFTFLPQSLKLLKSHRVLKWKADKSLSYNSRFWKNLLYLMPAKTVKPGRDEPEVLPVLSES
# T1 sequence (looked up) 2: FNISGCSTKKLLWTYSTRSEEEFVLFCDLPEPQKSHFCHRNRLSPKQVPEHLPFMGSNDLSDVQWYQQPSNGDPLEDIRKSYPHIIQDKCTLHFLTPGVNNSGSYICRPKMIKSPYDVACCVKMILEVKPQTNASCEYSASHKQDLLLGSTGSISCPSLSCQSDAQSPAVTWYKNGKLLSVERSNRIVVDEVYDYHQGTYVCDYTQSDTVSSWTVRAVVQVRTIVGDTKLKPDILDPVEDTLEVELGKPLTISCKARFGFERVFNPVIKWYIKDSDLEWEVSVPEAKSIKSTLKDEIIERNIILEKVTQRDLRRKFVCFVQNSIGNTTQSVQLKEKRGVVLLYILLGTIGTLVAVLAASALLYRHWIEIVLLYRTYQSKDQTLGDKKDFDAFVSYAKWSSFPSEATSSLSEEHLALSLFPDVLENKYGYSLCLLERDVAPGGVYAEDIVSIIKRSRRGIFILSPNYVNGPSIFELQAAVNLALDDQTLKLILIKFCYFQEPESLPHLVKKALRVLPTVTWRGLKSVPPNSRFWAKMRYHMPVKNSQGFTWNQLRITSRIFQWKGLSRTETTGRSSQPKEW
# [3] = molecular target: T1, human IL-18 receptor (alpha and beta …); experiment: cell-based or functional assay; remark: listed apart in the source
# [4] = molecular target: T2, Human recombinant IL-18 (R&D Systems #9124-IL-050/CF) (human, UniProt Q14116 1-193); experiment: cell-based or functional assay
# T2 sequence: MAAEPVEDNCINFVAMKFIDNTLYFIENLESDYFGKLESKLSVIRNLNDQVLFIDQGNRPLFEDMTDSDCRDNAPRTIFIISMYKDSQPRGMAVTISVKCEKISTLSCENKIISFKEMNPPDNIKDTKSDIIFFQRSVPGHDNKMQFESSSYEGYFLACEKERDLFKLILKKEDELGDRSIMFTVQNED
Binder,binding result [1],efficacy (% maximum signal (Emax) vs. IL-18 in reporter assay) [2],"potency (EC50), HEK-BLUE IL-18 reporter assay (SEAP) [2]",other results
B1,no binding (tested: 100 nM),,,
B2,,36%,< 30 nM,"potency (EC50), HEK-BLUE IL-18 reporter assay (SEAP) [3]: < 10 nM"
B3,no binding (tested: 100 nM),,,
B4,no binding (tested: 100 nM),,,
B5,no binding (tested: 100 nM),,,
B6,,,,"IC50, inhibition of IL-18 bioactivity in HEK-BLUE IL-18 reporter assay [4]: ~1 nM"
B7,,34%,> 100 nM and < 300 nM,
B8,no binding (tested: 100 nM),,,
B9,,17%,< 1000 nM,
